Laboratory results as given in paper PMC7723274.
No end group written: not given here.

What was measured:
[1] = target: hexon HVR1 chimera virion (HAdV-5 with hexon HVR1 replaced by that of HAdV-64) (human adenovirus 5 (HAdV-5) | human adenovirus 64 (HAdV-64)) (UniProt P04133); assay: co-sedimentation; 2.5 μg purified virus with 20 μM HD5 in 150 mM NaCl, 20 mM Tris, 5% glycerol, 1 mM MgCl2, on ice 45 min; discontinuous Histodenz gradient, 4°C, virus band collected; SDS-PAGE, fluorescent stain; HD5 normalised to proteins V and VII and read against a standard curve
[2] = target: HAdV-5 virion (E1/E3-deleted, replication-defective HAdV-5 vector with an eGFP cassette) (human adenovirus 5 (HAdV-5)) (UniProt P04133); assay: as above
[3] = target: C4 vertex chimera virion (HAdV-5 with penton base residues 288 to 571 from HAdV-64 and the DTET to GYAR mutation in fiber) (human adenovirus 5 (HAdV-5) | human adenovirus 64 (HAdV-64)) (UniProt P04133); assay: as above
[4] = target: HAdV-64 virion (E3 deleted, replication-competent HAdV-64 virus containing a CMV-eGFP ORF, WT HAdV-64 capsid) (human adenovirus 64 (HAdV-64)); assay: as above
[5] = target: hexon HVR1 chimera virion (HAdV-5 with hexon HVR1 replaced by that of HAdV-64) (human adenovirus 5 (HAdV-5) | human adenovirus 64 (HAdV-64)) (UniProt P04133)
[6] = target: HAdV-5 virion (E1/E3-deleted, replication-defective HAdV-5 vector with an eGFP cassette) (human adenovirus 5 (HAdV-5)) (UniProt P04133)
[7] = target: hexon HVR1 chimera virion (HAdV-5 with hexon HVR1 replaced by that of HAdV-64) (human adenovirus 5 (HAdV-5) | human adenovirus 64 (HAdV-64)) (UniProt P04133); remark: listed apart in the source
[8] = target: HAdV-5 virion (E1/E3-deleted, replication-defective HAdV-5 vector with an eGFP cassette) (human adenovirus 5 (HAdV-5)) (UniProt P04133); remark: listed apart in the source
[9] = target: C4 vertex chimera virion (HAdV-5 with penton base residues 288 to 571 from HAdV-64 and the DTET to GYAR mutation in fiber) (human adenovirus 5 (HAdV-5) | human adenovirus 64 (HAdV-64)) (UniProt P04133)
[10] = target: hexon HVR1/C4 vertex chimera virion (C4 chimera with hexon HVR1 replaced by that of HAdV-64) (human adenovirus 5 (HAdV-5) | human adenovirus 64 (HAdV-64)) (UniProt P04133)
[11] = target: HAdV-64 virion (E3 deleted, replication-competent HAdV-64 virus containing a CMV-eGFP ORF, WT HAdV-64 capsid) (human adenovirus 64 (HAdV-64))

Binder ATCYCRTGRCATRESLSGVCEISGRLYRLCCR (not fully specified; cysteine pairing not given here) [Human defensin 5] has a fold less HD5 bound per virion than to HAdV-5 (fold less than HAdV-5) [1] of 5, a stoichiometry N (molecules of HD5 per virion) [2] of 7090 and a fold more HD5 bound per virion than to HAdV-5 (fold more than HAdV-5) [3] of 2.3. It also gave a fold less HD5 bound per virion than to HAdV-5 (fold less than HAdV-5) [4] of 83, an HD5 IC50 of infection on A549 cells, against HAdV-5 (fold over HAdV-5) [5] of 5 and a binding of AF488-labeled virus to A549 cells after pre-incubation with 2.5, 5 and 10 μM HD5, fold change in GMF against no HD5 [6] of 1.4 to 2.1 fold. For the same binder, the HD5 concentration at which 50% of fiber stays capsid-associated after heating to 48°C, against HAdV-5 (fully associated at 20 μM HD5) (fold higher than HAdV-5) [7] was > 2, the HD5 concentration at which 50% of fiber stays capsid-associated after heating to 48°C (fully associated at 20 μM HD5) [8] was 5 µM and the HD5 concentration at which 50% of fiber stays capsid-associated after heating to 49.3°C (fully associated at 20 μM HD5) [9] was 5 µM. The HD5 concentration at which 50% of fiber stays capsid-associated after heating to 49.3°C, against HAdV-5 (fully associated at 20 μM HD5) (fold lower than HAdV-5) [10] was 2 and the infectivity on A549 cells of virus incubated with 5 μM or 10 μM HD5 (protocol 1) [11] was 4 to 5 fold.
